Measured values taken from the domain aggregation screens of Martell et al. (2025).

Assay: soluble fraction after stress (log2 fold change); higher = more stays soluble; pooled small domains, quantitative proteomics
Details: stress: 75 degC
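Further: 20 min heating vs room temperature control held 20 min.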

HMGYNDQEVKSNLITLLSTSKTGLSGVEISAQLGINRVTMTKFLNVFAAEGIIKQKNIGNLNLWLVEEGTE
soluble fraction (log2): -3.44

HMPDYAFEGVVIKLTHRDYDRWKAGFPDVDLPPYLTARDAWLSEQTPADRKNWFVSTATDLRNFQKREAI
soluble fraction (log2): -1.26

HMAERLQARIDAPGVRLDKALAETFPTLSRARLQALLADGAVTRDGQTVSNGSAKAQPGLYVVALPPVA
soluble fraction (log2): 0.385

HMAAEELTVDKILTAQSFGVTAEAILAKVNDPANTVATLTQADVDRLRAAGVPEGVVTALQARAPQ
soluble fraction (log2): 0.118

HMQSVKTQPLRDWLLAHFDKPYPDDEDKVRLAEASGMTRAQVGNWFINARVRTWRPMVLDLGEEIERESV
soluble fraction (log2): -0.325

HMQMSERENTILLTKRYIERGEYERAMNLLDSLLIKNALDEEALAMIDEIIALKAGASLQDFPRY
soluble fraction (log2): -0.797

HMLPVYSITEAAERLDIPASTIKWYADRFASYISPSKGKGRKRFTPEDLATLQKIHELSQDHTTEEAEAML
soluble fraction (log2): -0.0974

HMDLPGIVTETDRQRADLAARIGAAKVEAVLAGGARSVEADEDFDADTRRELHQFLTRMARRAFLEER
soluble fraction (log2): 0.1

HMDGLGLGAVILAQRKRQGWTQEDLAARIGVSKGAVSKWETGQSYPDLPLVPRLAALFHITVDELLDYR
soluble fraction (log2): -2.35

HMTDTIALRSVIAESGLKYKALAEIMGLSPYTLQMKIDNESEFKASEIDALANALGMDMQQRDSIFF
soluble fraction (log2): -0.536

HMKNIINLVIDGELHGKRIDAVIAQKNDSLSRTRIKNLVINGNLSINDEIVSDPSKKIYKDDKVSLTIPLP
soluble fraction (log2): -0.322

HMDHAVINSEEVTIKDLSEKIGVSAAEIIKALFTEGIIKTINDKIEYEYAQYVAGMFGVELTLKL
soluble fraction (log2): 0.357

HMDINLSENLVRLRHAKKLTQEQLADFLGVTKASVSKWETRQSLPDILLLPRLAAFYGVTVDELIGYEP
soluble fraction (log2): -1.81

HMRSSALDEIPGIGKQRKKNLLVHFTSVAKIKEASLDEIAAVPGMNRKAALVVVEFFQNQERE
soluble fraction (log2): -2.28

HMFPDLTGDELRIVDLLNTANDLQVNIITAKTNLPISRVTSLLFQLEMKGVVKPLAGGMYHLLG
soluble fraction (log2): -1.49

HMRTIGDSVYEKIKYDIVHLTLKPGEKLSEASLAEKYGISKAPIRVALRKLQEEGLIVIRPQSGSIVSP
soluble fraction (log2): -1.19

HMNSIQEQIEKYVYSLAPVTIERYESLKNGDIEDIEFEKLRKSISSKIINEKIDNKKQVAILSHLKKMYSD
soluble fraction (log2): -0.159

HMAADWTAIKLAYVNGGMSMRELAQRFHVGAAGLMKRAAKEGWEAERQQNSAKVSNAAQMLIN
soluble fraction (log2): 0.049

HMSNEWIEISAKTVDDAINEGLIRLGTTTDKMDVEVLEKESAGFLGFIGKHDAKIRVRFKEV
soluble fraction (log2): -0.0738

HMEVIDQLFKIALTLFDIDKGENNSISQDLVDKVIEQMKTTAPTFIKRELSEDEVKKLRFEIQNHFNV
soluble fraction (log2): -0.482

HMHALSVKFSDEAAKTLPYDILSALRDVLALDPRPGYSRDENKIYRFEYADYNISFSVKDKTLTVLSAEK
soluble fraction (log2): -2.15

HMHADIAATVVATMRQLGVLGLPRNYEIFYEALSGTNRELSLAVVSLSNRPTQDDLDRIGRRFFA
soluble fraction (log2): -1.33

HMSDAPLLSIRSLAVAFDGTRVVDGVSFDVARGEVVALVGESGSGKTVTGLSLLDLVPPPGRRVGGEV
soluble fraction (log2): 0.278

HMSEGEMSQWIIAQAKQQGGGFQPDAARLLGSYVGNNTLRARQEIDKLLTYVGPSRVVTPEDVVLLTA
soluble fraction (log2): -0.23

HMLSDAAAMESIAYEAIRQMEPDTYYIIGAGTTTRGIMEVLGLKNTLIGVDLIRNKELVANDLGGKELLSY
soluble fraction (log2): 0.0782

HMKIRKAVIPAAGLGTRVLPASKSIPKEMLPIVDKPVIQYIVEEAVKAGITEILIITGRGKGAIEDHFDRS
soluble fraction (log2): -0.391

HMNKQEFLNTLRIIFKKANVLDVESIIDVYEEHFAVGYEKGLNDEQIIKSLGTPKEIYTSYVEAGI
soluble fraction (log2): -1.31

HMIGHIGSAVMLNAKLRPRLPLLHVLALTQSLGERLSAAEAQPEVYRWSDPGQSRVIAEFEGGRLTRWRLE
soluble fraction (log2): -2.05

HMAYSEEDRRRVREELLTTALKLMSTQGIQHTTVEQVYRSVGISRSFFYAFFPTKEDLIVEAL
soluble fraction (log2): 0.0495

HMGAIVTVPDLAGRPQPGAEAELRRSGLVPKVRTSYSLTGTRGTVISQTPPAGSRVREGAEVEVVVSRGLN
soluble fraction (log2): 0.00469

HMGEILYSGVLKGGDGPEATKLALEKFLGEANTQVAGRIGVQPETQVIWLSREAVDSAASTLSQHKGNMYV
soluble fraction (log2): -0.247

HMDKSPMIGTAEYEGVLYWRQTKDNGATWEWITDKNGDKMPVSGPAPAVGIDKDGYWTVNGESTGVLAKD
soluble fraction (log2): 0.225

HMGPSSIVVYVSGAVKTPGVYTLAPGSRVDDAVRAAGGLSERAESAGTNLAAQLSDGEHVHVAAAGE
soluble fraction (log2): 0.0915

HMKNSMANVQARREKILSAVDQSEPVAVEGLAQRFNVSITTLRRDLKALSDMGQVKWHHGLVERT
soluble fraction (log2): -0.229

HMSEMVIPEDFLAALETNPQAKAFYATLNRQNQYAVYHRLQTAKRPETRAKRIADFVAQLAAGKRF
soluble fraction (log2): -1.03

HMGVEVEVPNVKGKLVADAEYELGLAQLTPVRTDSAYNRNLPPGTVLEQLPASGSHVKEGREIYLTINST
soluble fraction (log2): 0.284

HMSQNVSFTVDSGQAGLRLDVFLSQADPAFSRSQIKYAIEEGDVTVNGKEPKVSQHLKDGDIVELHLE
soluble fraction (log2): 0.0493

HMTAQGDSSDAVQRAITEILRHEDPSHPFSDQQLVIKLRTMDISVSRRTVTKYRKLLHIPSSTHRK
soluble fraction (log2): -3.12

HMWDEMKDQKLVEALLLLREDERKLIYQHVFEERTFDDISRINGLPPYKVKGIYYYAIRKIRKWMG
soluble fraction (log2): -2.26

HMVNHEERKRLIAEATWRTISHVGIEQASVRTIAKEAGLSLGALRYYFTTQEELLRFSMQLVQERV
soluble fraction (log2): -0.0767

HMFDENVKLIENEYDVSIISRGSELKVMGDVENVDKAARALRSMLAMINKGESLTEQNVRYVLTLVNEGNE
soluble fraction (log2): -0.735

HMSFMFEISVIRSQYNMQDPESKTGFYNAIAKKLLEFPEKLERDNYTEAVAREYMIPETDLKNLVNSMGG
soluble fraction (log2): -3.12

HMNVWGLSERELEATRLLIEGFSSKEASARMGISPSTVRSLWGRARAKMGVDSIEDARELVA
soluble fraction (log2): -0.415

HMAVDPSVLTRRERQALAWIARGLSNKEVARGLNLAESTVKVHVQSILRKLNLTSRVQAAVYAIEHGIDK
soluble fraction (log2): -3.08

HMTLRDRDQALEELWGQLADVPMDSETERLLEPFMGWGVGVSRDEIWHWFDRRHSKGIGHLLYS
soluble fraction (log2): -1.42

HMSGMEKLAIQEIEKEIKSFVKGDILIELTGKNRATAYVSEKNVGALIGKKGERINSIEKRLGVGIDVRPY
soluble fraction (log2): -0.23

HMLEQISDINILSGYAKEVIAENPKTVSDYLSGKAAAFQALVGQVMKKTGGRGNPVIIQEILKRLIHKK
soluble fraction (log2): -0.0597

HMDDKLKKLEEVFEMQEGTLTPDMRLDELEEWDSMTRLSLIVMMEDDYGKKVKRSEVMNYTTVQDIVDSME
soluble fraction (log2): -0.0532

HMATFTPYLVRITASVLNIRKGPGTTYAVTGQIKDRGVYTIVEQKGNWGRLKSGAGWISLSYTKK
soluble fraction (log2): -3.25

HMSHISLGQRYKIEGYLQINLKRTQIAKEIGLPKKTVNQEIKRNSNPQTGIYKAEEAHQLYLDRMQKKRK
soluble fraction (log2): -0.335

HMKRSFGYIRLLPSKRYQASYIGPDSQRHAAPETFTRKMDAEGWLSAERRLIEWDQWTSPEQRAAQARLD
soluble fraction (log2): -0.663

HMKDGMRVYITYHDSEEEPEKPIGDGTTKGWHTNSTASVVWISQKVAESADLGIWGDPIRIKGEA
soluble fraction (log2): 0.0608

HMSVLSEQIKEQLMEDIFHKKYKAGDRIVESALARELGVSQASVREALRSLIAMGFLENEPFKGITVR
soluble fraction (log2): -0.000514

HMVSAEQNTLEFIKENVKEDVIEDDIEFYKSLLEDWSVEVDNSSKLLDPGNNNSLLAVIAYSIENEL
soluble fraction (log2): 0.232

HMLQIADEYLDRLQALFEDVRDNHFAIGDLLVELVDMHDSRRVDVINYIAGRLAISPTTLYDYENTARR
soluble fraction (log2): -1.15

HMISINVIGEMISGSYGNTPFSRTYEKDIYEQMVKLSDDADQAQTVEEYNKILAEFSLLTTEDLK
soluble fraction (log2): -0.546

HMETGFADTLRKFRKEADMTQEKLAEALGVTTGAVYKWENGRSTPEVRLLVEMADLFGTSVDALLDYKVR
soluble fraction (log2): -1.33

HMGANAVAAFTARVRTGPSTGYPVRISVPQGRQVRVISGPYGGWYRVSYQGLTGYTYGGLLRQG
soluble fraction (log2): -0.673

HMLVTQSITVPMAMSGIRLDAALAMLFPDHSRNRLKAWLDDGHILVDGAVWAGKQRLEGNEEITATLPEAK
soluble fraction (log2): -0.673

HMNPEDDLLKAIIMKYFSNAQVQVDKNVIEYLLKRVDRDYQNLYNILEKINILSLQRKSKITTHLIRDIM
soluble fraction (log2): -0.414

HMQRDELRYDQFLTALQNKEFTQLNVRFDDYTYLVTGTFQSGRPFSTRGPVSEEFIRLIESSGVQVTWLPM
soluble fraction (log2): -1.65

HMDVSPVRLIREARGLSQVEVAKAAGLSRAAYQNIEVGKTVPRASTMVNIARALGVSMDDLLAPV
soluble fraction (log2): -0.437

HMEGAEDMNRALALAFLRDNSRSTVAQLAEHLGSSKRSAERLVAQLKDEGVLERQGSPRAGLWIVHI
soluble fraction (log2): -0.169

HMETPSNTAGITHATSDGYIFKGESDIIGRNSFGFIVKHGSHNHIIPFDSLRGTKWEYLINKYT
soluble fraction (log2): 0.000248

HMSAEDYMEMIYRLSQENGFTRVNDLASALNVQPPSVTRMIQKLAELNLIKYEKYGVIMLQPYGIEVGRSL
soluble fraction (log2): -2.65

HMDAAANTLRILKALSESPMSADRLAELLMEEGSGRNPRTIRRYIRALREAGFGVEHREGRYVL
soluble fraction (log2): -0.387

HMDSDMGQQLKTLLTVGTFMSSKELKAIAQQLGLKKPTDLKEWVELESGTQRIEGKPTKGYWIKMNDINN
soluble fraction (log2): -0.367

HMRDIGKNIRYYREKKGYSQEQLAQLLFVTRQTVSNYETSRSRPDVETLVKLAGLLDIDVTDLIYGPR
soluble fraction (log2): -2.74

HMDYYSILGVDRNATGEDIKKAFKKKAMKYHPDRNPDNKESERKFKEAKEAYDTLSNPQKKSMYDQFGT
soluble fraction (log2): 0.149

HMGSNLSFDLSQIIASRYQEKAAELGLTAPSLARTDLSPQEQATAEVVARAIIADYYDQRVAPFNDLIPQ
soluble fraction (log2): -0.631

HMREITVEELYELEGIRIVGTIPGISAWVAESGRQMVFLVGQKVKGHDLLEVGESRVVLRKGDSVVNVLL
soluble fraction (log2): -1.56

HMRSPLYVQIKQHILGDIRKGVWKPGEKLPTELDLAERFGVSVGTVRRAMGGLEDEGIISRREGSGTFVRT
soluble fraction (log2): -0.458

HMSMSTVGERIKKKRKNLNFTQQELAAKLNISAQAVSKWENGVALPDLGLMPKLAQVLESTVDGLLGYQGA
soluble fraction (log2): -0.756

HMTEEPISDGIKKLVEEWENIEGNLIMIFHGIQKHYGYVPRNVAKYVSEAIDVPLTRIYEILTFYNYFTM
soluble fraction (log2): 0.261

HMALLSDEERIATVFAARLGGYSHQEIYKLLQDRFGPSLPAAYSEKSVLTDLQTALSQVPSL
soluble fraction (log2): -0.814

HMESMIGSLRGRLLELFGDGEVLIEVGGVGYRVIVTPTTTVRLGDVGGDVFVHVHHHIREADQTLYGF
soluble fraction (log2): -0.48
